Common to all, as to assay: fluorescence polarisation
In general terms: In fluorescence polarisation assays a small probe gives low polarisation when free and higher when bound to something large.

In assay [1] the target is T1, Mdb1 pT113 fluorescein-labelled phosphopeptide.
T1 chain: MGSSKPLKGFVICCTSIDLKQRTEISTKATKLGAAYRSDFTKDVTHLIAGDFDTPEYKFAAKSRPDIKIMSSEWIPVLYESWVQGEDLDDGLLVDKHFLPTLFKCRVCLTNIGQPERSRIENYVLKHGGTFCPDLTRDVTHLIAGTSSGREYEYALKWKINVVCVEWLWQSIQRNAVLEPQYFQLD
To be noted: chain shown with the change; point at 40 µM protein; parent: est. 140; read off a plot.

Assay [2] addresses T2, Treslin pS1001 fluorescein-labelled phosphopeptide.
T2 chain: GYGDIGVVEESPEKGDEI
To be noted: for response: chain shown with the change, point at 40 µM protein, parent: est. 83, read off a plot; for Kd: chain shown with the change;, parent: 0.60 ± 0.03 µM.

Assay [3] has as its target T3, Treslin pT969 fluorescein-labelled phosphopeptide.
T3 chain: GYGLTKSVAETPVHKQIS
To be noted: for response: chain shown with the change, point at 40 µM protein, parent: est. 70, read off a plot.

Assay [4] concerns the target T4, Mdb1 pT113 fluorescein-labelled phosphopeptide.
T4 chain: T1 chain with E56K
The conditions noted are these: chain shown with the change; point at 40 µM protein; parent: est. 140; read off a plot.

The target in assay [5] is T5, Treslin pS1001 fluorescein-labelled phosphopeptide.
T5 chain: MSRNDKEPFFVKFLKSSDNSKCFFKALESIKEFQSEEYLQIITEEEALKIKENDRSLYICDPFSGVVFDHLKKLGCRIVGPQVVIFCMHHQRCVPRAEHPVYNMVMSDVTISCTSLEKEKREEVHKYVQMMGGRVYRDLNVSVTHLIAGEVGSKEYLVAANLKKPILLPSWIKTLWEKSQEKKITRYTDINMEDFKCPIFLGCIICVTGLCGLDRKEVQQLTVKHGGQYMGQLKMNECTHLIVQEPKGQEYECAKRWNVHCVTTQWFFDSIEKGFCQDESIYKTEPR
To be noted: chain shown with the change; point at 40 µM protein; parent: est. 83; read off a plot.

Assay [6] concerns the target T6, Treslin pT969 fluorescein-labelled phosphopeptide.
T6 chain: T5 chain
To be noted: chain shown with the change; point at 40 µM protein; parent: est. 70; read off a plot.

The text below walks through data of paper PMC6175577, “BRCT domains of the DNA damage checkpoint proteins TOPBP1/Rad4 display distinct specificities for phosphopeptide ligands” (eLife, 2018).

Substitutions are numbered along the chain they refer to. Names may count otherwise.

As for GYGGVMTVPNTPQKPNLQ [Rad4-BRCT1,2 segment, wild type (recombinant, fluorescence polarisation), P32372 K56E; K151E], the response in assay [1] was determined as 30 millidegrees.

B1: TOPBP1-BRCT0,1,2 segment, wild type (recombinant, fluorescence polarisation) K250E (protein)
chain: T5 chain with E155K
In the case of B1, in assay [2], the response was 41 millidegrees and the Kd was 350 nM. For the same molecule, in assay [3], the response stood at 30 millidegrees.

B2: TOPBP1-BRCT0,1,2 segment, wild type (recombinant, fluorescence polarisation) K155E (protein)
chain: T5 chain with E250K
With B2, the response in assay [2] turned out to be 68 millidegrees; in assay [3] it was 46 millidegrees. Besides, the Kd came to 730 nM in assay [2] and 1000 nM in assay [3] (chain shown with the change;, parent: 0.94 ± 0.06 µM).

In the case of GYGGVMTVPNTPQKPNLQ [Rad4-BRCT1,2 segment, wild type (recombinant, fluorescence polarisation), P32372 K151E], the response in assay [4] is 92 millidegrees.

Take GYGDIGVVEESPEKGDEI: in assay [5], the response is 12 millidegrees.

GYGLTKSVAETPVHKQIS: the response in assay [6] was determined as 0 millidegrees.

The term Kd denotes the constant that tells how readily two partners part at equilibrium.
